± gives the half width of the 95% confidence interval.
assay: folding stability dG unfold from trypsin proteolysis; higher = more stable
Outline: (§1)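 How resistant each design was to proteolysis was captured as K50, inferred by Bayesian fitting of sequencing counts. Unfolding free energy was then derived relative to a sequence-predicted unfolded-state K50 and a shared folded-state K50, per protease or combined. Digestion used trypsin and chymotrypsin at 11 threefold-diluted concentrations plus a no-protease condition, on mini-proteins under 80 residues without cysteine in a PA-tagged cDNA display construct. Designs were kept only when AlphaFold2 dimer inter-PAE was above 15.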

Row | Sequence | folding stability dG unfold [kcal/mol]
1 | SAGGSAGGSAGKKVTLKVLVKNENGKLYMFEAEYEFDENGKLVKVKVKVYEVEVKDLKLPSAGGSAGGSAGG [r11_1019_TrROS_Hall] | 2.66 ± 0.13
2 | SAGMKIVVTLPDGWTATSDPSTGLITITDPKTGEPLLGKIPSSEPNKVTLYDPNNGKPLRELDIDEVEGSAG [r5_761_JUSTAS] | 0.287 ± 0.026
3 | SAGMGPNEVKPIEIEFEVYETGEGEPYLVGKAIAKLYVDPVEGTVRLEIKDPEKPEPFITFEFPVEEISAGG [r19_413_TrMRF] | 1.38 ± 0.039
4 | SAGGSAGGSAGGMATTTTKIEIYPGTGKVKTTTTVTDPSTGTTTTTTTTEETSLEELTSSAGGSAGGSAGGS [r10_173_JUSTAS] | -0.0031 ± 0.05
5 | SAGKVVKISAPIEVLRNIPNVLELYVVGDKVYLVVPNELLVVDLDLPPLVPTVPESVPEELALLGGLLGSAG [r5_2_TrMRF] | 0.728 ± 0.051
6 | MRTVLLPIAGLPPEQVREAIERAVRAAREAGQPDTTLIVFNPGPAEQVEETTRLVQELADEPDFTVTVIPIS [r1_387_TrMRF] | 0.685 ± 0.046
7 | SAGGSAGGSAMTIEELAKKGYEIRIVGPDGKVRTFKVGESLEEIAEKLGLAPGAKIEIRKVSAGGSAGGSAG [r3_216_TrROS_Hall] | 1.48 ± 0.024
8 | SAGGSAGGYIVKIKMPKFPHVFIFPPEMPPKQFADEIRRRFGNPDAPITDITIQPVTPEELKKLSAGGSAGG [r6_122_TrROS] | 0.787 ± 0.059
9 | SAGGSAMTLEFKILFPNKTKEEAIKAIEEIPEEIKKNIKKIEILKIDPVGDEVIATLKIEVDPEFLSAGGSA [r15_244_TrMRF] | 0.723 ± 0.18
10 | SKKPKVEIEIEIPSVISATPIPNTDEVLVNVPYRVKIKVIGEGPPKEVEVDLPGIMLVSDFIDELKKLLGSA [r9_656_TrMRF] | 1.72 ± 0.072
11 | SAGGMTFTITVTIPAKEKFYDPSKGIWRERELNRVITIPFSSSDIEKAKEEVRSKLPPDKYKITSVDSAGGS [r16_459_JUSTAS] | 1.29 ± 0.04

assay: folding stability dG unfold from chymotrypsin proteolysis; higher = more stable
Outline: as §1

Row | Sequence | folding stability dG unfold [kcal/mol]
12 | SAGGSAGGSAGGSEKEVEISVVLPDGYVLRVRVREVSEDGEEVEVEVELVKVKPGQKLLSAGGSAGGSAGGS [r4_72_TrROS_Hall] | 1.37 ± 0.079
13 | SAGGNDDDQKPKMVRVKIKYDNPDGEKYKIDEIWVMPPPFIMIRMPGNGQEIFIPPDQIKEIEIEPVSAGGS [r8_410_TrROS] | 1.09 ± 0.081
14 | SAGGSAGGSAGGSEELLKKNPNYIIVKKVEKVLEAKTPSGKKYTIKTTIYIITKPNELPSAGGSAGGSAGGS [r10_0_JUSTAS] | 2.13 ± 0.14
15 | SAGGSMVLVRVERTPDGTLRVTALFFFDGRLLRVERTFRLAPDGRIVDADVSVEELPVPPSEVPVLSAGGSA [r2_474_TrMRF] | 4.45 ± 0.071
16 | SAGGSAGGSAGGMYVLIKITNPKTKKEISILIKVKPGDKITFTLPNGAKVEIIELPPEESAGGSAGGSAGGS [r10_957_TrROS_Hall] | 4.28 ± 0.068
17 | SAGGMKIIPLEEAEKFIEANPDKELVIGVRPGESLYLFVVKRDPDKPFNIEVLEVIEFDPDGNGRHLPSAGG [r13_481_TrMRF] | 1.6 ± 0.1
18 | SAGGMPGEVVDISDVPPGATLYDPEGKSYGPVVDVRVTVGPDSVEITITFPDGTTRTITAPRDKIYILPSAG [r5_850_JUSTAS] | 1.24 ± 0.065
19 | SAGGSAGGSTILDALEKGFEITDIEPNNDGPYMLTVRNPEEGYRVTIMIHPNGDIMIQVQPVPSAGGSAGGS [r12_166_TrROS] | 2.19 ± 0.042
20 | SAGSKKYIPKEVTVYVLGTAPPDMSLEEALKNPNFAVSVPLKATVIYDPETKTARVLLPDGTVVEFPVPSAG [r5_701_TrMRF] | 1.44 ± 0.11
21 | SAGKVEIIPIENEDGSKFLVIKVNGKLIIITENEDGSISIKIIDLKTNKIEVIEIPKKDLKKALEKILKSAG [r5_674_TrROS_Hall] | 3.48 ± 0.12
22 | SAGGMLKIKVELFYPDGSTRTLPVPEEIQKEIVEALKKGEKIPEKPKKELEDIAKKEGYTIKIIELLSAGGS [r8_159_JUSTAS] | 1.41 ± 0.11
23 | SAGGSAGGSAGMPLKVTVLSTSPLLESSELVTVKITPPDGSVVVIPSSVSLEEVEKLLLSSAGGSAGGSAGG [r17_353_JUSTAS] | 0.05 ± 0.07
24 | SAGGMKKIKIVVKVPPNVTAEELAKALEDELKKKGYEVKVTVKVVKKPDGSLYVVIEVEIRPKNEKPSAGGS [r16_128_TrROS_Hall] | 3.67 ± 0.075
25 | SAGGSAGGMIPLEEIEIEEITEETLPSNEKVITVKVKFPDGTKTLTFEPNEGEEKILEKIKELTSAGGSAGG [r6_233_JUSTAS] | 0.727 ± 0.034
26 | SAGGMNLMIKIENNGEPITFMINSPEDAEEIASNLPELGYPIEVKKLEPQRNEDGNPMVMVEIRIKPSAGGS [r8_336_TrROS] | 1.63 ± 0.15
27 | SAGGKWRTIQLPGISIQLNPKDGTITVMMPSDMMEELKEAFGPGFEIDEIHHHPDGWMQMTIPIKPPSAGGS [r8_415_TrROS] | 1.75 ± 0.11
28 | SAGMEFPANTTVELTLTLTFPVPLPGEGTGPVTLTYTLRLEVRPKPRIPLPDPALRELLERLGLSPDLLSAG [r5_624_TrMRF] | 4.88 ± 0.13
29 | SMTVKIELEVEIEVPETPEELRKLAEALAEELGIEEVKVVEIEYDPETKTVRVKVEITVKLPPPPPEEEESA [r9_918_TrROS_Hall] | 2.89 ± 0.25
30 | SAGGSAGGSAGFEAFVEEIKKDGDYKVEAFVFDNESGIKTLVIVLESPEEDKYEIRTFNISAGGSAGGSAGG [r11_753_TrMRF] | 0.796 ± 0.24
31 | SAGGSANLAETPPVTTTETIEIKVPDPGKPLPITEEDVKKKYEGKNTKVEISVEGDKVIITITTKESAGGSA [r15_377_JUSTAS] | 0.871 ± 0.094
32 | SAGGSAGGSAGPNMVPIGKLTIEIRNPDNGNPLRIRIDLYVVPAPDGWMIALRILDIEPPSAGGSAGGSAGG [r11_113_TrROS] | 4.15 ± 0.21

— the supplement of paper PMC12764529
